Test results published in patent publication US20170051304A1 (DOW AGROSCIENCES, published 2017).
Changes are numbered by the printed parent chain. Where “and” joins values, the source holds several entries; their conditions need not be identical. Identical values can stand only once. Where no end group is shown, it is not given here.

B1: DIG-177 (full length wild type Cry6Aa) (other)
chain: MIIDSKTTLPRHSLIHTIKLNSNKKYGPGDMTNGNQFIISKQEWATIGAYIQTGLGLPVNEQQLRTHVNLSQDISIPSDFSQLYDVYCSDKTSAEWWNKNLYPLIIKSANDIASYGFKVAGDPSIKKDGYFKKLQDELDNIVDNNSDDDAIAKAIKDFKARCGILIKEAKQYEEAAKNIVTSLDQFLHGDQKKLEGVINIQKRLKEVQTALNQAHGESSPAHKELLEKVKNLKTTLERTIKAEQDLEKKVEYSFLLGPLLGFVVYEILENTAVQHIKNQIDEIKKQLDSAQHDLDRDVKIIGMLNSINTDIDNLYSQGQEAIKVFQKLQGIWATIGAQIENLRTTSLQEVQDSDDADEIQIELEDASDAWLVVAQEARDFTLNAYSTNSRQNLPINVISDSCNCSTTNMTSNQYSNPTTNMTSNQYMISHEYTSLPNNFMLSRNSNLEYKCPENNFMIYWYNNSDWYNNSDWYNN
notes: Insecticidal crystal protein; Recombinant from Pseudomonas fluorescens (standard), or expressed in maize, there in part with transit peptides
B2: CTP 2 (Carboxy terminal peptide 2), amino acids 451-475 of SEQ ID NO:2 (peptide)
peptide: CPENNFMIYWYNNSDWYNNSDWYNN
modifications: also: Cys451 (position 1) disulfide-bonded to Cys88 of LF under non-reducing conditions
B3: Carboxy terminal peptide 451-475 of trypsin treated DIG-984 (C451>A) (peptide)
peptide: APENNFMIYWYNNSDWYNNSDWYNN
B4: Carboxy terminal peptide 444-475 of trypsin treated DIG-984 (C451>A) (peptide)
peptide: NSNLEYKAPENNFMIYWYNNSDWYNNSDWYNN
B5: CTP 1 (Carboxy terminal peptide 1), amino acids 444-475 of SEQ ID NO:2 (peptide)
peptide: B4 peptide with A8C
modifications: also: Cys451 (position 8) disulfide-bonded to Cys88 of LF under non-reducing conditions

Tests used:
[1] = biological target: the molecule itself; assay: SDS-PAGE of undigested full-length DIG-177 (self-association)
Experimental: SDS-PAGE was run following the protocol NuPAGE Bis-Tris gels from Invitrogen Life technologies (Protocol Pub. No. MAN0007894 Rev. A.0, Ref. 2). Briefly, samples were mixed with denaturing sample buffer (Invitrogen) plus 5 mM DTT (for reducing PAGE) or minus DTT (for non reducing PAGE) and heated at 95° C. for 5 minutes. The samples were loaded onto Invitrogen Bis/Tris gel. The gel was run with MOPS or MES running buffer under 200 V for ˜43 minutes. The gel was stained with Coomassie blue staining solution (Bio-Rad) for 30 minutes and de-stained with de-staining solution (7% Acetic acid and 5% Methanol in water) until the background cleared.

[2] = biological target: T1, Large fragment (residues 12-390) of trypsin treated DIG-616 (DIG-177 C162>A) (Bacillus thuringiensis, UniProt Q45757 12-390); assay: cell-based or functional assay
T1 sequence: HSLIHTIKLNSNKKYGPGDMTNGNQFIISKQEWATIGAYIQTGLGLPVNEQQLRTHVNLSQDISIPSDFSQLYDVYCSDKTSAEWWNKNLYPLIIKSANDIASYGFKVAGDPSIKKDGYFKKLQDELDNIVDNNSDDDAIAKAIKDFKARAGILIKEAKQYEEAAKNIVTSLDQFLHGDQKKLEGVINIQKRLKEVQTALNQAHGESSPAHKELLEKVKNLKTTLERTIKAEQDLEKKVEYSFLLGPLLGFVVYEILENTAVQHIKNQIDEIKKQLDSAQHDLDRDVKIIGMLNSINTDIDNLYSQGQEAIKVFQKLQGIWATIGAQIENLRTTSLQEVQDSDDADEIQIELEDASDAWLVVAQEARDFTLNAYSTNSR

[3] = biological target: T2, Large fragment (residues 12-390) of trypsin treated DIG-984 (DIG-177 C88>A; C451>A) (Bacillus thuringiensis) (UniProt Q45757); assay: cell-based or functional assay
T2 sequence: T1 sequence with C77A, A151C

Row | Binder | % Mortality [2] [%] | % Mortality [3] | other results
1 | B1 |  |  | binding result [1]: binds
2 | B2 | 95 |  | 
3 | B3 |  | 0% and 21.1% and 15% | 
4 | B4 |  | 0% and 21.1% and 15% | 
5 | B5 | 95 |  | 
